Substitutions are numbered along the chain they refer to.
B1: 393C2C5 (antibody, V domains shown)
VH: DVQLVESGGGLVQPGGSRKLSCAASGFTFSSFGMHWVRQAPEKGLEWVAYISSGSSPIYYADTVKGRFTISRDNPKNTLFLQMTSLRSEDTAMYFCATFYYGNSFAYWGQGTLVTVSA
VL: DIVMTQSPSSLTVTAGEKVTMSCKSSQTLLNSGNQKNYLTWYQQKSGQPPKLLIYWASTRESGVPDRFTGSGSGTDFTLTISSVQAEDLAVYYCQNAYSYPVTFGSGTKVELK
B2: 198F10B8 (antibody, V domains shown)
VH: QAYLQQSGAELVRSGASVRMSCKASGYTFSSYNMHWVKQTPGQGLEWIGYIYPGNGGTNYNQKFKDKATLTADTSSSTAFIQISSLTSEDSAVYFCLTGRGFAYWGQGTLVTVSA
VL: B1 VL with K18R, T28S, L30F, S46P, W56R, A97D, V102L, S106V, V110L
B3: 394C2G5 (antibody, V domains shown)
VH: B1 VH with S31G, V37I, A40T, I51V, S56R, T98R, A106D, Y107H
VL: DIVMTQSPSFLTVTAGEKVTMSCKSSQSLLNSGNQKNYLTWYQQKPGQPPKLLIYWASTRESGVPDRFTGSGSGTDFTLTINNVQAEDLALYYCQNAYSFPLTFGAGTKLELT
B4: 395B3C11 (antibody, V domains shown)
VH: B1 VH with S31G, V37I, A40T, S56R, K65Q, T98R, A106D, Y107H, A118S
VL: B3 VL with N82S, N83S, T113K
B5: 405G8F11 (antibody, V domains shown)
VH: B1 VH with A23V, A24T, T84S, T98R
VL: B1 VL with S22N, T28S, S46L, I54M, Y93F, N96S, Y98F, V102L, S106A, V110L
B6: 406E1H7 (antibody, V domains shown)
VH: B1 VH with S31G, V37I, A40T, S56R, K65Q, T98R, A106D, Y107H, A118S
VL: B3 VL with N82S, N83S, T113K
B7: 406F11G8 (antibody, V domains shown)
VH: B1 VH with P75S, T98R, F99I
VL: B1 VL with T20A, S46P, S99Y, V102L, V110L
B8: 406G3C4 (antibody, V domains shown)
VH: EIQLQQSGPELMKPGASVRISCKASGYSFISYYIYWVKQSHGKGLEWIGYIDPFNGNTNYNQKFKGKATLTVDRSSSTAYIHLNSLTSEDSAVYYCAIVNGYGRGAMDYWGQGTSVTVSS
VL: QIVLTQSPAIMSASPGEKVTMTCSASSSISYMHWYQQKSGTSPKRWIYDTSKLASGVPARFSGSGSGTSYSLTISSMEAEDAATYYCQQWSSNPLTFGDGTKLELK
B9: 407A8G10 (antibody, V domains shown)
VH: B1 VH with S31G, V37I, A40T, S56R, T98R, A106D, Y107H
VL: B3 VL with K24R, K36R, T78A, N82S, N83S, T113K
B10: 407E11H8 (antibody, V domains shown)
VH: B1 VH with S31D, V37I, A40T, S56R, A97V, T98R, Y101F, A106D, Y107H
VL: B3 VL with S22T, K24R, S28N, Q35L, Y55S, N82S, N83S, A86P, T113K
B11: 407H12E6 (antibody, V domains shown)
VH: B1 VH with F29V, M93I, T98R, A106D, Y107H
VL: DIVMTQSPSSLTVTTGEKVTMSCKSSQSLLNSGNQKNYLTWYQQKPGQSPKLLIYWASTRESGVPDRFTGSGSGTDFTLTISSVQTEDLAVYFCQNNYFFPLTFGAGTKLELK

biological target: Claudin18.2-His protein (human); test: indirect ELISA on coated Claudin18.2-His

Binder	EC50 [ng/mL]
B1	50.4
B2	31.5
B3	8.46
B4	4.43
B5	1.99
B6	9.55
B7	16
B8	9.18
B9	5.54
B10	17
B11	126

From US20220073643A1
